Read-outs that look alike come from different tables or passages of the source.
B1: PaHBDH (Psychrobacter arcticus 273-4) (protein)
chain: MATQLQQDLTGKVALVTGAASGIGRDIAETYAKAGAAVGIADINLEAAQKTVDAIEAAGGRALAIAMDVTSEAAVNDGVQRLVDTFGGIDILVSNAGIQIIDPIHKMAFEDWKKMLAIHLDGAFLTTKAAIQHMYKDDKGGTVIYMGSVHSHEASLFKAPYVTAKHGLLGLCRVLAKEGAVHNVRSHVICPGFVKTPLVEKQIPQQAAEKGISEESVVNDIMLVNTVDKEFTTVDDIAQLALFLAAFPTNVFTGQSIVASHGWFMN
notes: recombinant purified enzyme; cloning details only in supplement

Legend:
AbHBDH = target: T1, AbHBDH (Acinetobacter baumannii, UniProt A0A1E3M3N6); assay: stopped-flow single-turnover kinetics, NADH limiting; type: biochemical; details: acetoacetate or 3-oxovalerate as co-substrate; 283 and 298 K
T1 construct: gene AUO97_16470; recombinant purified enzyme; cloning details only in supplement
T1 sequence (A0A1E3M3N6 1-261): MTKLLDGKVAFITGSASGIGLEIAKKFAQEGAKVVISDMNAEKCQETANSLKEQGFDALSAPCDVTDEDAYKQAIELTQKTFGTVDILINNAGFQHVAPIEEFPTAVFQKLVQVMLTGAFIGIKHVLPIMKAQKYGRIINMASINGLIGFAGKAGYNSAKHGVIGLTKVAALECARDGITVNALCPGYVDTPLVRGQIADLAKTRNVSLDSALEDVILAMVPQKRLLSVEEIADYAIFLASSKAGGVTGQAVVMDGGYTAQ

PaHBDH = target: T2, PaHBDH (Psychrobacter arcticus, UniProt Q4FRT2); assay: as above; type: biochemical; details: acetoacetate or 3-oxovalerate as co-substrate; 283 and 298 K
T2 construct: gene Psyc_1428; recombinant purified enzyme; cloning details only in supplement
T2 sequence (Q4FRT2 1-266): B1 chain

[1] = substrate: CC(=O)CC(=O)O; assay: steady-state saturation curves; type: biochemical, Psychrobacter arcticus; details: co-substrate NADH; 283-318 K; 45.0 °C
Text: (§1) steady-state saturation curves on PaHBDH | We measured saturation curves for AbHBDH and PaHBDH at various temperatures

[2] = substrate: CCC(=O)CC(=O)O; assay: steady-state saturation curves; type: biochemical, Psychrobacter arcticus; details: co-substrate NADH; 283-318 K; 45.0 °C
Text: as §1

[3] = substrate: NC(=O)C1=CN([C@@H]2O[C@H](COP(=O)(O)OP(=O)(O)OC[C@H]3O[C@@H](n4cnc5c(N)ncnc54)[C@H](O)[C@@H]3O)[C@@H](O)[C@H]2O)C=CC1; assay: purified protein, by the assay type; design: steady-state saturation kinetics of NADH-dependent reduction by purified recombinant HBDH, 298 K
Text: (§2) We measured saturation curves for AbHBDH and PaHBDH at various temperatures (283–330 K for AbHBDH and 283–318 K for PaHBDH) (Figure S2 and Tables S1–S4). […] Apparent steady-state catalytic constants (kcat) were used to construct Eyring plots for each enzyme (Figure 1). […] Accordingly, a significant negative ΔCp^⧧ is predicted for the psychrophilic enzyme but not for the mesophilic one (Table S6).

[4] = substrate: NC(=O)C1=CN([C@@H]2O[C@H](COP(=O)(O)OP(=O)(O)OC[C@H]3O[C@@H](n4cnc5c(N)ncnc54)[C@H](O)[C@@H]3O)[C@@H](O)[C@H]2O)C=CC1; assay: purified protein, by the assay type; design: steady-state saturation kinetics of NADH-dependent reduction by purified recombinant HBDH, 298 K; remark: listed apart in the source
Text: as §2

Molecule | stopped-flow single-turnover kinetics, NADH limiting (AbHBDH) | stopped-flow single-turnover kinetics, NADH limiting (PaHBDH) | Km [1] | kcat [1] | Km [2] | kcat [2] | Km [3] | kcat [3] | kcat/Km [3] | Km [4] | kcat [4] | kcat/Km [4]
NC(=O)C1=CN([C@@H]2O[C@H](COP(=O)(O)OP(=O)(O)OC[C@H]3O[C@@H](n4cnc5c(N)ncnc54)[C@H](O)[C@@H]3O)[C@@H](O)[C@H]2O)C=CC1 [NADH] | demonstrating NADH is saturated with AbHBDH and kSTO is unimolecular | demonstrating NADH is saturated with PaHBDH and kSTO is unimolecular | – | – | – | – | – | – | – | – | – | –
B1 | – | – | 110 ± 10 µM | 86 ± 4 s⁻¹ | 36 ± 2 µM | 5.9 ± 0.1 s⁻¹ | 30 ± 10 µM | 86 ± 4 s⁻¹ | 2.7e+06 ± 700000 M⁻¹ s⁻¹ | 3.4 ± 0.4 µM | 5.9 ± 0.1 s⁻¹ | 1.7e+06 ± 800000 M⁻¹ s⁻¹
